One assay deals with T1, CHO_huFOLR2 (human, UniProt P14207).
T1 construct: stably expressed on CHO cells; also called human FOLR2 on CHO cells; folate receptor beta
Put plainly: flow cytometry on CHO cells stably expressing human FOLR2, MFI fold over background. How it is done:
Anti-FOLR1 HCAb binding to CHO cells stably expressing human FOLR2 (also known as folate receptor beta, FRβ), and CHO cells stably expressing human IZUMO1R (also known as folate receptor delta, FOLR4, FRδ, JUNO) was analyzed for a number of different clones. Data are presented in FIG. 2, panels A-B, as MFI fold over background. Insets show binding of positive control anti-FOLR2 and anti-IZUMO1R antibodies, respectively, in dark grey, compared to the respective isotype control in light grey.
On the technique in general: Flow cytometry measures light scatter and fluorescence of single cells or particles in a stream.

In the next assay the target is recombinant human FOLR1 (human, UniProt P15328 25-234). Put plainly: BLI, Octet QK-384, recombinant human FOLR1. How it is done: As used herein, the “Kd” or “Kd value” refers to a dissociation constant determined by BioLayer Interferometry, using an Octet QK384 instrument (Fortebio Inc., Menlo Park, CA) in kinetics mode. For example, anti-mouse Fc sensors are loaded with mouse-Fc fused antigen and then dipped into antibody-containing wells to measure concentration dependent association rates (kon). Antibody dissociation rates (koff) are measured in the final step, where the sensors are dipped into wells containing buffer only. The Kd is the ratio of koff/kon. (For further details see, Concepcion, J, et al., Comb Chem High Throughput Screen, 12 (8), 791-800, 2009).
Sequence of recombinant human FOLR1 (P15328 25-234 limits assumed): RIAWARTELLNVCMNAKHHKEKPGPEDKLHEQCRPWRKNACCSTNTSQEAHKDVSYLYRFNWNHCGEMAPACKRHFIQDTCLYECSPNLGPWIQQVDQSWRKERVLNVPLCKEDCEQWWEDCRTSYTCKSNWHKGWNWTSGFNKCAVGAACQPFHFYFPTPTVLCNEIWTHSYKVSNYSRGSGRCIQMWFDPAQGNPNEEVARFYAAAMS
Table 17 summarizes affinity and epitope bin information for anti-FOLR1 heavy chain antibodies (HCAbs). Column 1 indicates the clone ID of the HCAb. Column 2 indicates the affinity of the HCAb to recombinant human FOLR1 as measured by Bio-layer interferometry (BLI) using an Octet QK-384. Column 3 indicates the epitope bin of HCAb as determined by a competition BLI binding experiment using an Octet QK-384.
(Biolayer interferometry detects binding as a change in optical thickness at a sensor tip.)

Assay [1] has as its target T2, cyno FOLR1 on CHO cells (cyno (Cynomolgus macaque), UniProt A0A2K5U044 25-234).
T2 construct: whole, on cells; also called cyFOLR1
Put plainly: flow cytometry, CHO cells stably expressing cyno FOLR1.

The target in assay [2] is T3, human Folate Receptor Alpha (FOLR1) on cells (human, UniProt P15328 25-234).
T3 construct: whole, on cells; Endogenous on IGROV-1, OVCAR-3, SKOV-3, HT-29 cells; transfected on CHO cells; the cell is named under assay; also called FRα; FRa
T3 sequence (P15328 25-234): as the sequence (P15328 25-234 limits assumed) above
Put plainly: flow cytometry, CHO cells stably expressing human FOLR1.

Assay [3] addresses T3, human Folate Receptor Alpha (FOLR1) on …. The assay can be described thus: cell binding, OVCAR-3 cells.
For assay [4] the target is unchanged. Put plainly: cell binding, CHO cells stably expressing human FOLR1.
Assay [5] has the same target. The assay can be described thus: cell binding, IGROV-1 cells.
In assay [6] the target is T2, cyno FOLR1 on CHO cells. The assay can be described thus: cell binding, CHO cells stably expressing cyno FOLR1.
The target in assay [7] is T3, human Folate Receptor Alpha (FOLR1) on …. Put plainly: flow cytometry, IGROV-1 cells.
The target in assay [8] is T4, FOLR3 (folate receptor gamma) (UniProt P41439 23-245, limits assumed).
T4 construct: also called FRγ
T4 sequence (P41439 23-245 limits assumed): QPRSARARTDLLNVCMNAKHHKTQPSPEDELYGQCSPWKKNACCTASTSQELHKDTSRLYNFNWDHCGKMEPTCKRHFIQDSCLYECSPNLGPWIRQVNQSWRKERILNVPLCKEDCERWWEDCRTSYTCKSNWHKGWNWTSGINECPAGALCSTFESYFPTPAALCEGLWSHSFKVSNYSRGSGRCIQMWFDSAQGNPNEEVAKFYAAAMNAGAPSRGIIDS
The assay can be described thus: BLI (Octet).

A further assay deals with T5, mouse FOLR1 on CHO cells (mouse, UniProt P35846 25-232).
T5 construct: whole, on cells; also called msFOLR1
T5 sequence (P35846 25-232): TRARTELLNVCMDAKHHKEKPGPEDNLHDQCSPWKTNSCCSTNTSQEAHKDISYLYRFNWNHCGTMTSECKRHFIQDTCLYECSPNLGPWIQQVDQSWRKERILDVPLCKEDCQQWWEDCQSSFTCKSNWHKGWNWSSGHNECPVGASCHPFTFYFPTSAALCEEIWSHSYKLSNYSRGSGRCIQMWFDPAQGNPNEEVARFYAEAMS
Put plainly: cell binding, CHO cells stably expressing mouse FOLR1.

Changes are numbered by the printed parent chain.

T1 sequence (P14207 17-230 limits assumed): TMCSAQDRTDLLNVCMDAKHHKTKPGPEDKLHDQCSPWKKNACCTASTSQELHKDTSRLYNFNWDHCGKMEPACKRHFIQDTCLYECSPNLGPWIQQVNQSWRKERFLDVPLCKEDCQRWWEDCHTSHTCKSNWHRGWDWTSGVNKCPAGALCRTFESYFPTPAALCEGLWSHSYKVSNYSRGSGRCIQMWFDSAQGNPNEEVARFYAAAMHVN
T2 sequence (A0A2K5U044 entry or part of it): as the sequence (P15328 25-234 limits assumed) above, with I2T, W4R, R37K, A146P, H171Y counted along it

B1: anti-FOLR1 heavy chain antibody (HCAb, UniAb) clone ID 352317 (antibody, V domains shown)
VH: EVQLVESGGGLVKPGGSLRLSCAASGFTFSSYSMNWVRQAPGKGLEWVSSISSGSSYIYYADSVKGRFTISRDNAKNSLYLQMNSLRAEDTAVYYCARDVTSGIAAAGSAFNIRGQGTLVTVSS
notes: Heavy chain-only antibody (no light chain), F14 family
For B1, the binding result in the assay with CHO_huFOLR2 was “binds”. Also, the Kd – broadly, the concentration at which binding is half-saturated – with recombinant human FOLR1 worked out at 8.7 nM. Besides, the “fold over background MFI” value in the assay with cyno FOLR1 on CHO cells [1] came out at 465 fold over background; in assay [2], 1220 fold over background; in assay [7], 711 fold over background. Besides, the EC50 (in general, the concentration needed to bring the measured effect to its halfway point) in [3] is 3.3 nM; in assay [4], 5.1 nM; in assay [5], 3.9 nM; with cyno FOLR1 on CHO cells [6], 5 nM.

B2: anti-FOLR1 heavy chain antibody (HCAb, UniAb) clone ID 352368 (antibody, V domains shown)
VH: B1 VH with T28N, S30R, Y32F, S33G, N35T, V37L, S109A
notes: as for B1
In the case of B2, the binding result with CHO_huFOLR2 is “binds”. The Kd with recombinant human FOLR1 turned out to be 32.9 nM. The “fold over background MFI” value in the assay with cyno FOLR1 on CHO cells [1] came to 179 fold over background; in assay [2] it was 1230 fold over background; in [7] it was 548 fold over background. Also, the EC50 stood at 3.1 nM in assay [3], 3.8 nM in assay [4], 4.1 nM in assay [5] and 4.3 nM with cyno FOLR1 on CHO cells [6].

B3: anti-FOLR1 heavy chain antibody (HCAb, UniAb) clone ID 358474 (antibody, V domains shown)
VH: B1 VH with V93I
notes: as for B1
Turning to B3, in [8], the binding result is “no binding”. Moreover, the Kd in the assay with recombinant human FOLR1 worked out at 7.62 nM. In addition, the “fold over background MFI” value in the assay with cyno FOLR1 on CHO cells [1] came to 2350 fold over background; in [2], 2240 fold over background. Also, the EC50 in [3] was 1.2 nM; with mouse FOLR1 on CHO cells, 2.6 nM; in assay [4], 4 nM; in assay [5], 4 nM; with cyno FOLR1 on CHO cells [6], 4.3 nM.

B4: anti-FOLR1 heavy chain antibody (HCAb, UniAb) clone ID 358457 (antibody, V domains shown)
VH: B1 VH with K13Q, A88D
notes: as for B1
On to B4, for which the Kd in the assay with recombinant human FOLR1 came out at 6.82 nM. Moreover, the “fold over background MFI” value in the assay with cyno FOLR1 on CHO cells [1] came out at 2520 fold over background; in assay [2] it was 2080 fold over background. The EC50 in assay [3] was determined as 1.1 nM; with mouse FOLR1 on CHO cells, 2.5 nM; in [4], 4.6 nM; in [5], 3.6 nM; with cyno FOLR1 on CHO cells [6] it was 3 nM.

B5: anti-FOLR1 heavy chain antibody (HCAb, UniAb) clone ID 358454 (antibody, V domains shown)
VH: B1 VH with K13Q, Y95F
notes: as for B1
Turning to B5, in assay [8], the binding result was “no binding”. For the same molecule, the Kd with recombinant human FOLR1 came out at 6.78 nM. The “fold over background MFI” value in the assay with cyno FOLR1 on CHO cells [1] is 1520 fold over background; in [2], 1230 fold over background. For the same molecule, the EC50 in [3] amounted to 1.5 nM; with mouse FOLR1 on CHO cells it was 3.2 nM; in assay [4] it was 4.2 nM; in assay [5], 3.3 nM; with cyno FOLR1 on CHO cells [6], 3.4 nM.

B6: anti-FOLR1 heavy chain antibody (HCAb, UniAb) clone ID 352477 (antibody, V domains shown)
VH: B1 VH with K76R
notes: as for B1
Regarding B6, the binding result with CHO_huFOLR2 is reported as “binds”. Further, the Kd in the assay with recombinant human FOLR1 was determined as 12.5 nM. The “fold over background MFI” value with cyno FOLR1 on CHO cells [1] was 362 fold over background; in assay [2] it was 1590 fold over background; in [7], 1960 fold over background. Also, the EC50 came to 2.4 nM in [3], 4.2 nM in assay [4], 5 nM in assay [5] and 4.2 nM with cyno FOLR1 on CHO cells [6].

B7: anti-FOLR1 heavy chain antibody (HCAb, UniAb) clone ID 358433 (antibody, V domains shown)
VH: B1 VH with T28I
notes: as for B1
Regarding B7, the Kd in the assay with recombinant human FOLR1 worked out at 6.34 nM. The “fold over background MFI” value amounted to 2530 fold over background in the assay with cyno FOLR1 on CHO cells [1] and 1980 fold over background in assay [2]. The EC50 in assay [3] was 1.3 nM; in the assay with mouse FOLR1 on CHO cells, 3.6 nM; in assay [4] it was 5.9 nM; in assay [5], 4.1 nM; with cyno FOLR1 on CHO cells [6] it was 3.1 nM.

B8: anti-FOLR1 heavy chain antibody (HCAb, UniAb) clone ID 352391 (antibody, V domains shown)
VH: EVQLVESGGGLVQPGGSLRLSCAASGFSFSSYSMKWVRQAPGKGLEWVSYISSSSDTIEYADSVKGRFTISRDNAKNSLYLQMNSLRDEDTAVYYCASVGLDFDYRGQGTLVTVSS
notes: Heavy chain-only antibody (no light chain), F18 family
B8: the binding result with CHO_huFOLR2 is “no binding (tested: 100 nM)”. Also, the Kd with recombinant human FOLR1 was 34.8 nM. In addition, the results for the “fold over background MFI” value (with cyno FOLR1 on CHO cells [1]; in [2]; in assay [7]) were 198 fold over background, 944 fold over background and 646 fold over background, respectively. Besides, the EC50 was found to be 2.8 nM in assay [3], 5.5 nM in assay [4], 2.8 nM in assay [5] and 2.7 nM in the assay with cyno FOLR1 on CHO cells [6].

B9: anti-FOLR1 heavy chain antibody (HCAb, UniAb) clone ID 352491 (antibody, V domains shown)
VH: B8 VH with D62G
notes: as for B8
Take B9: the binding result in the assay with CHO_huFOLR2 was “no binding (tested: 100 nM)”. The Kd with recombinant human FOLR1 was found to be 37.4 nM. Besides, the entries for the “fold over background MFI” value (with cyno FOLR1 on CHO cells [1]; in assay [2]; in assay [7]) were 159 fold over background, 1480 fold over background and 1640 fold over background, respectively. Besides, the EC50 amounted to 3.3 nM in [3], 4.3 nM in [4], 5 nM in [5] and 2.1 nM with cyno FOLR1 on CHO cells [6].

B10: anti-FOLR1 heavy chain antibody (HCAb, UniAb) clone ID 352672 (antibody, V domains shown)
VH: B8 VH with S53R, S98T
notes: as for B8
As for B10, in the assay with CHO_huFOLR2, the binding result is “no binding (tested: 100 nM)”. Moreover, in the assay with recombinant human FOLR1, the Kd is 36 nM. Besides, the results for the “fold over background MFI” value (with cyno FOLR1 on CHO cells [1]; in assay [2]; in [7]) were 623 fold over background, 1070 fold over background and 2300 fold over background, respectively. In addition, the EC50 was 6.3 nM in assay [3], 5.9 nM in [4], 8.8 nM in [5] and 2.9 nM with cyno FOLR1 on CHO cells [6].

B11: anti-FOLR1 heavy chain antibody (HCAb, UniAb) clone ID 352372 (antibody, V domains shown)
VH: B8 VH with D102E
notes: as for B8
Take B11: the binding result with CHO_huFOLR2 is recorded as “no binding (tested: 100 nM)”. Besides, in the assay with recombinant human FOLR1, the Kd was 52.7 nM. In addition, the “fold over background MFI” value in the assay with cyno FOLR1 on CHO cells [1] stood at 123 fold over background; in assay [2], 1130 fold over background; in assay [7] it was 506 fold over background. For the same molecule, the EC50 in [3] is 4.9 nM; in assay [4], 4.6 nM; in assay [5], 3.6 nM; in the assay with cyno FOLR1 on CHO cells [6], 3.4 nM.

B12: anti-FOLR1 heavy chain antibody (HCAb, UniAb) clone ID 352496 (antibody, V domains shown)
VH: B8 VH with Q13K
notes: as for B8
Take B12: the binding result with CHO_huFOLR2 was “no binding (tested: 100 nM)”. The Kd in the assay with recombinant human FOLR1 was determined as 41.8 nM. In addition, the “fold over background MFI” value with cyno FOLR1 on CHO cells [1] was 157 fold over background; in assay [2] it was 1410 fold over background; in [7], 1740 fold over background. The EC50 in [3] is 1.1 nM; in [4], 3.5 nM; in [5], 3.8 nM; with cyno FOLR1 on CHO cells [6], 4.3 nM.

B13: anti-FOLR1 heavy chain antibody (HCAb, UniAb) clone ID 352564 (antibody, V domains shown)
VH: B8 VH with S52T, D56S, D102E
notes: as for B8
As to B13, the binding result in the assay with CHO_huFOLR2 is recorded as “no binding (tested: 100 nM)”. In the assay with recombinant human FOLR1, the Kd was 81.1 nM. For the same molecule, the figures for the “fold over background MFI” value (with cyno FOLR1 on CHO cells [1]; in assay [2]; in [7]) were 84.5 fold over background, 816 fold over background and 1790 fold over background, respectively. Further, the EC50 in assay [3] is 32.6 nM; in assay [4] it was 5.4 nM; in [5] it was 3.7 nM; with cyno FOLR1 on CHO cells [6], 5.7 nM.

The values are drawn from patent publication US20240002498A1 (TENEOBIO, published 2024).
